Literature values in patent US6518244B2, “Combinations of heparin cofactor II agonist and platelet IIb/IIIa antagonist, and uses thereof” (IntimaX Corporation, priority 2000, dated 2003).

Settings: recipients of hirudin; cited from Huhle et al, Br. J. Haematol. (1999)

Substance: hirudin
- recipients in whom anti-hirudin antibodies are elicited: 74%
